From patent US9994881B2, “Functionalized carboxylic acids and alcohols by reverse fatty acid oxidation in engineered microbes” (William Marsh Rice University, priority 2011, dated 2018)
Marks after values point to notes of the source that are not given here.

Key:
Assay type in all cases: biochemical
[1] = crotonyl-CoA reductase activity (loss of NADH absorbance); details: substrate Crotonyl-CoA; supernatant fraction; expressed from pTrcHis2A
Experimental: (§1) Cultures for enzymatic assays were grown overnight in 100 mL of LB media at 37° C. in 250 mL baffled flasks (Wheaton Industries, Inc., Millville, N.J.) in E. coli BL21 (DE3) cells induced with either 1 mM IPTG (pCA24N, pTrcHis2A) or 1 mM Arabinose (pUCBB-pBAD) at an OD600˜0.6, or expressed constitutively (pUCBB-ntH6). Reactions were monitored on either a Synergy HT plate reader (BioTek Instruments, Inc., Winooski, Vt.) at 25° C. (for reactions monitored at 300 nm or higher) or in a Biomate 5 Spectrophotometer (Thermo Scientific, Waltham, Mass.) for reactions at 263 nm. […]
(§2) For kinetic characterization, his-tagged proteins of AtoB, FadA, FadB, caHBD, egTER were purified from the B-PER supernatant fractions using Talon Metal Affinity Resin (Clontech Laboratories, Inc., Mountain View, Calif.) using gravity purification. […] Enzyme concentration was established by measuring the absorbance at […] and extinction coefficients predicted for each enzyme by the ProtParam program (web.expasy.org/protparam/).
(§3) For kinetic characterization, an appropriate amount of enzyme was established by checking linear range near predicted KM values. Then, the rates were measured for a range of substrates in order to establish kcat and KM. […]

[2] = β-hydroxybutyryl-CoA dehydrogenase assay (NADH dependent reduction of acetoacetyl-CoA)
Experimental: as §1, §2, §3

[3] = crotonase activity (loss of crotonoyl-CoA at 263 nm); details: substrate Crotonyl-CoA; supernatant fraction; expressed from pUCBB-ntH6
Experimental: as §1, §2, §3

[4] = forward thiolase assay (biosynthetic direction), coupled with caHBD; details: substrate Acetyl-CoA; supernatant fraction; AtoB expressed from pCA24N, FadA from pUCBB-ntH6
Experimental: as §1, §2, §3

[5] = thiolase activity in the reverse direction (loss of acetoacetyl-CoA at 303 nm); details: substrate Acetoacetyl-CoA; supernatant fraction; AtoB expressed from pCA24N, FadA from pUCBB-ntH6
Experimental: as §1, §2, §3

B1: egTER: NAD(P)H-dependent trans-2-enoyl-CoA reductase from Euglena gracilis (protein, UniProt Q5EU90 69-539, looked up)
Trans-2-enoyl-CoA reductase: VPQMAEGFSGEATSAWAAAGPQWAAPLVAAASSALALWWWAARRSVRRPLAALAELPTAVTHLAPPMAMFTTTAKVIQPKIRGFICTTTHPIGCEKRVQEEIAYARAHPPTSPGPKRVLVIGCSTGYGLSTRITAAFGYQAATLGVFLAGPPTKGRPAAAGWYNTVAFEKAALEAGLYARSLNGDAFDSTTKARTVEAIKRDLGTVDLVVYSIAAPKRTDPATGVLHKACLKPIGATYTNRTVNTDKAEVTDVSIEPASPEEIADTVKVMGGEDWELWIQALSEAGVLAEGAKTVAYSYIGPEMTWPVYWSGTIGEAKKDVEKAAKRITQQYGCPAYPVVAKALVTQASSAIPVVPLYICLLYRVMKEKGTHEGCIEQMVRLLTTKLYPENGAPIVDEAGRVRVDDWEMAEDVQQAVKDLWSQVSTANLKDISDFAGYQTEFLRLFGFGIDGVDYDQPVDVEADLPSAAQQ
- Specific Activity [1]: 5.4 ± 0.6^d μmol/mg/min

B2: paaH: E. coli 3-hydroxyadipyl-CoA dehydrogenase that participates in the degradation of phenylacetate (protein, UniProt P76083 1-475, looked up)
3-hydroxyadipyl-CoA …: MMINVQTVAVIGSGTMGAGIAEVAASHGHQVLLYDISAEALTRAIDGIHARLNSRVTRGKLTAETCERTLKRLIPVTDIHALAAADLVIEAASERLEVKKALFAQLAEVCPPQTLLTTNTSSISITAIAAEIKNPERVAGLHFFNPAPVMKLVEVVSGLATAAEVVEQLCELTLSWGKQPVRCHSTPGFIVNRVARPYYSEAWRALEEQVAAPEVIDAALRDGAGFPMGPLELTDLIGQDVNFAVTCSVFNAFWQERRFLPSLVQQELVIGGRLGKKSGLGVYDWRAEREAVVGLEAVSDSFSPMKVEKKSDGVTEIDDVLLIETQGETAQALAIRLARPVVVIDKMAGKVVTIAAAAVNPDSATRKAIYYLQQQGKTVLQIADYPGMLIWRTVAMIINEALDALQKGVASEQDIDTAMRLGVNYPYGPLAWGAQLGWQRILRLLENLQHHYGEERYRPCSLLRQRALLESGYES
- specific activity toward the reduction of acetoacetyl-CoA ([2]; purified enzyme, data not shown): moderate

B3: FadB: E. coli hydroxyacyl-CoA dehydrogenase and enoyl-CoA hydratase, part of fatty acid oxidation complex (protein, UniProt P21177 1-729, looked up)
Fatty acid oxidation complex …: MLYKGDTLYLDWLEDGIAELVFDAPGSVNKLDTATVASLGEAIGVLEQQSDLKGLLLRSNKAAFIVGADITEFLSLFLVPEEQLSQWLHFANSVFNRLEDLPVPTIAAVNGYALGGGCECVLATDYRLATPDLRIGLPETKLGIMPGFGGSVRMPRMLGADSALEIIAAGKDVGADQALKIGLVDGVVKAEKLVEGAKAVLRQAINGDLDWKAKRQPKLEPLKLSKIEATMSFTIAKGMVAQTAGKHYPAPITAVKTIEAAARFGREEALNLENKSFVPLAHTNEARALVGIFLNDQYVKGKAKKLTKDVETPKQAAVLGAGIMGGGIAYQSAWKGVPVVMKDINDKSLTLGMTEAAKLLNKQLERGKIDGLKLAGVISTIHPTLDYAGFDRVDIVVEAVVENPKVKKAVLAETEQKVRQDTVLASNTSTIPISELANALERPENFCGMHFFNPVHRMPLVEIIRGEKSSDETIAKVVAWASKMGKTPIVVNDCPGFFVNRVLFPYFAGFSQLLRDGADFRKIDKVMEKQFGWPMGPAYLLDVVGIDTAHHAQAVMAAGFPQRMQKDYRDAIDALFDANRFGQKNGLGFWRYKEDSKGKPKKEEDAAVEDLLAEVSQPKRDFSEEEIIARMMIPMVNEVVRCLEEGIIATPAEADMALVYGLGFPPFHGGAFRWLDTLGSAKYLDMAQQYQHLGPLYEVPEGLRNKARHNEPYYPPVEPARPVGDLKTA
- Specific Activity ([2]; substrate Acetoacetyl-CoA, supernatant fraction, expressed from pUCBB-ntH6): 0.185 ± 0.001^c μmol/mg/min
- Specific Activity [3]: 0.051 ± 0.004^c μmol/mg/min

B4: FadA: E. coli 3-ketoacyl-CoA thiolase (thiolase I), a component of fatty acid oxidation complex FadAB (protein, UniProt P21151 1-387, looked up)
3-ketoacyl-CoA thiolase FadA: MEQVVIVDAIRTPMGRSKGGAFRNVRAEDLSAHLMRSLLARNPALEAAALDDIYWGCVQQTLEQGFNIARNAALLAEVPHSVPAVTVNRLCGSSMQALHDAARMIMTGDAQACLVGGVEHMGHVPMSHGVDFHPGLSRNVAKAAGMMGLTAEMLARMHGISREMQDAFAARSHARAWAATQSAAFKNEIIPTGGHDADGVLKQFNYDEVIRPETTVEALATLRPAFDPVNGMVTAGTSSALSDGAAAMLVMSESRAHELGLKPRARVRSMAVVGCDPSIMGYGPVPASKLALKKAGLSASDIGVFEMNEAFAAQILPCIKDLGLIEQIDEKINLNGGAIALGHPLGCSGARISTTLLNLMERKDVQFGLATMCIGLGQGIATVFERV
- Specific Activity [4]: Not detected^c
- Specific Activity [5]: 0.013 ± 0.002^c μmol/mg/min
